{
  "source": "the supplement of paper PMC10567573",
  "test": "protein stability index of a GFP-peptide fusion (GPS, HEK-293T) (PSI 1-6); higher = more stable",
  "data": [
    {"protein": "APWNYHYHCPGSPDHQVPYGHDYP", "values": [
      {"measurement": "protein stability index", "setting": "parent: IOH5394_44, c terminus: a fixed tail appended", "result": 1.94}
    ]},
    {"protein": "MNLHVYISEHEHFTDFNATSALFW", "values": [
      {"measurement": "protein stability index", "setting": "parent: IOH5653_18, c terminus: a fixed tail appended", "result": 2.74}
    ]},
    {"protein": "HLTRHQRTHTGEKPYKCTLCGENF", "values": [
      {"measurement": "protein stability index", "setting": "parent: IOH6312_99, c terminus: a fixed tail appended", "result": 2.9}
    ]},
    {"protein": "LLRHQRIHTGERPYKCPECGKSFS", "values": [
      {"measurement": "protein stability index", "setting": "parent: IOH6312_85, c terminus: a fixed tail appended", "result": 2.03}
    ]},
    {"protein": "FCYCAGSHKRKRSSGSFCYCHPDS", "values": [
      {"measurement": "protein stability index", "setting": "parent: IOH5876_8, c terminus: a fixed tail appended", "result": 1.91}
    ]},
    {"protein": "KPIVPTDGKRVIVVFHCEFSSERG", "values": [
      {"measurement": "protein stability index", "setting": "parent: IOH5852_70, c terminus: a fixed tail appended", "result": 2.59}
    ]},
    {"protein": "YNPSFEDHQTLLSAAHEVELQRQK", "values": [
      {"measurement": "protein stability index", "setting": "parent: IOH6410_42, c terminus: a fixed tail appended", "result": 3.61}
    ]},
    {"protein": "LGCYAVYSLLYLEHKGWYSWVLSM", "values": [
      {"measurement": "protein stability index", "setting": "parent: IOH5653_82, c terminus: a fixed tail appended", "result": 2.95}
    ]},
    {"protein": "SVICRSLPEGMGPGESGQPPPAC", "note": "[ALKBH7 WT]", "values": [
      {"measurement": "protein stability index", "setting": "parent: IOH5568_34, c terminus: native", "result": 1.99}
    ]},
    {"protein": "FQAKKIPIVSSLADPLDTPPDSKE", "values": [
      {"measurement": "protein stability index", "setting": "parent: IOH5807_78, c terminus: a fixed tail appended", "result": 3.78}
    ]},
    {"protein": "SNFHINVEESVDGQVVSSHKREI", "values": [
      {"measurement": "protein stability index", "setting": "parent: IOH5303_75, c terminus: native", "result": 2.11}
    ]},
    {"protein": "RPDTGDDAAGHGFCYCAGSHKRKR", "values": [
      {"measurement": "protein stability index", "setting": "parent: IOH5876_6, c terminus: a fixed tail appended", "result": 2.92}
    ]},
    {"protein": "VPGTQVGQGGKLWDPSVQSCKEGL", "values": [
      {"measurement": "protein stability index", "setting": "parent: IOH6312_45, c terminus: a fixed tail appended", "result": 4.2}
    ]},
    {"protein": "ALLHQAETLQPSVWFGGREHVLMF", "values": [
      {"measurement": "protein stability index", "setting": "parent: IOH5167_67, c terminus: a fixed tail appended", "result": 2.09}
    ]},
    {"protein": "MASSSTVPLGFHYETKYVVLSYLG", "values": [
      {"measurement": "protein stability index", "setting": "parent: IOH5956_1, c terminus: a fixed tail appended", "result": 2.43}
    ]},
    {"protein": "LARRRRRRQARREAEADKPRRLGR", "values": [
      {"measurement": "protein stability index", "setting": "parent: IOH6410_65, c terminus: a fixed tail appended", "result": 4.75}
    ]},
    {"protein": "VVTSAREHIYDLRSLENYHFVDEH", "note": "[CLINT1 WT]", "values": [
      {"measurement": "protein stability index", "setting": "parent: IOH5634_17, c terminus: a fixed tail appended", "result": 2.76}
    ]},
    {"protein": "QPKKLHLCPLCGKNFSNNSNLIRH", "values": [
      {"measurement": "protein stability index", "setting": "parent: IOH6312_63, c terminus: a fixed tail appended", "result": 2.55}
    ]},
    {"protein": "KIANLGSCNDSKLEFRSFWELIGE", "note": "[S100A14 WT]", "values": [
      {"measurement": "protein stability index", "setting": "parent: IOH5597_12, c terminus: a fixed tail appended", "result": 2.01}
    ]},
    {"protein": "RETASLKLLPHQPRIVEMKKGSNG", "values": [
      {"measurement": "protein stability index", "setting": "parent: IOH5807_39, c terminus: a fixed tail appended", "result": 3.37}
    ]},
    {"protein": "DPQSGELPSERWNPTQNVRTILLS", "note": "[UBE2R2 WT]", "values": [
      {"measurement": "protein stability index", "setting": "parent: IOH5652_18, c terminus: a fixed tail appended", "result": 3.45}
    ]},
    {"protein": "EKPYKCPECGEIFAHSSNLLRHQR", "values": [
      {"measurement": "protein stability index", "setting": "parent: IOH6312_82, c terminus: a fixed tail appended", "result": 2.43}
    ]},
    {"protein": "CSECGESFSRSSRLMSHQRTHTG", "values": [
      {"measurement": "protein stability index", "setting": "parent: IOH6312_114, c terminus: native", "result": 2.98}
    ]},
    {"protein": "FMEKRNQWLVSQLSAASPDTGHDS", "values": [
      {"measurement": "protein stability index", "setting": "parent: IOH5394_23, c terminus: a fixed tail appended", "result": 2.4}
    ]},
    {"protein": "FGPDSKSSALACTLPTLPAKVYVG", "values": [
      {"measurement": "protein stability index", "setting": "parent: IOH5398_13, c terminus: a fixed tail appended", "result": 2.21}
    ]},
    {"protein": "QRTHTGEKPYKCPECGEIFAHSSN", "values": [
      {"measurement": "protein stability index", "setting": "parent: IOH6312_81, c terminus: a fixed tail appended", "result": 3.1}
    ]},
    {"protein": "QTSAFARQPRDELERVRVSCTIIF", "values": [
      {"measurement": "protein stability index", "setting": "parent: IOH5167_61, c terminus: a fixed tail appended", "result": 2.28}
    ]},
    {"protein": "ERDFPCPVCRKTSRYRSLRPNRQL", "values": [
      {"measurement": "protein stability index", "setting": "parent: IOH5913_11, c terminus: a fixed tail appended", "result": 2.25}
    ]},
    {"protein": "CKACITRWWEDLERDFPCPVCRKT", "values": [
      {"measurement": "protein stability index", "setting": "parent: IOH5913_9, c terminus: a fixed tail appended", "result": 3.85}
    ]},
    {"protein": "YGHDYPRAAYQQVIQPALPGQPLP", "values": [
      {"measurement": "protein stability index", "setting": "parent: IOH5394_47, c terminus: a fixed tail appended", "result": 1.96}
    ]},
    {"protein": "KPYKCTLCGENFSHRSNLIRHQRI", "values": [
      {"measurement": "protein stability index", "setting": "parent: IOH6312_101, c terminus: a fixed tail appended", "result": 2.32}
    ]},
    {"protein": "FAHSSNLLRHQRIHTGERPYKCPE", "values": [
      {"measurement": "protein stability index", "setting": "parent: IOH6312_84, c terminus: a fixed tail appended", "result": 2.34}
    ]},
    {"protein": "RTHTGEKPYKCTLCGENFSHRSNL", "values": [
      {"measurement": "protein stability index", "setting": "parent: IOH6312_100, c terminus: a fixed tail appended", "result": 2.17}
    ]},
    {"protein": "YPCVLATEGFTSGRHYWEVEVGDK", "values": [
      {"measurement": "protein stability index", "setting": "parent: IOH5913_59, c terminus: a fixed tail appended", "result": 1.8}
    ]},
    {"protein": "FGGGSTRGGSLLAGGGGFGGGSLS", "values": [
      {"measurement": "protein stability index", "setting": "parent: IOH5303_3, c terminus: a fixed tail appended", "result": 1.81}
    ]},
    {"protein": "SMTTPRCYVGATVLRGRLYAIAGY", "values": [
      {"measurement": "protein stability index", "setting": "parent: IOH6063_85, c terminus: a fixed tail appended", "result": 2.41}
    ]},
    {"protein": "YPHCTGISQQDPESDSQGQGNGLF", "note": "[FAM164C WT]", "values": [
      {"measurement": "protein stability index", "setting": "parent: IOH5453_15, c terminus: a fixed tail appended", "result": 3.84}
    ]},
    {"protein": "SCTIIFLASIFQLAMWTTALLHQA", "values": [
      {"measurement": "protein stability index", "setting": "parent: IOH5167_64, c terminus: a fixed tail appended", "result": 2.71}
    ]},
    {"protein": "KEHVPTWLQNTHVYSWPKNKKNIL", "values": [
      {"measurement": "protein stability index", "setting": "parent: IOH5394_87, c terminus: a fixed tail appended", "result": 2.59}
    ]},
    {"protein": "FGGNPRFLSLHRAHLGEEAHKCLE", "values": [
      {"measurement": "protein stability index", "setting": "parent: IOH6312_70, c terminus: a fixed tail appended", "result": 1.85}
    ]},
    {"protein": "TVAGKHQDLKYISPEIMASVLNGK", "values": [
      {"measurement": "protein stability index", "setting": "parent: IOH5852_59, c terminus: a fixed tail appended", "result": 3.04}
    ]},
    {"protein": "REESLPNLLQYVRMPLLTPRYITD", "values": [
      {"measurement": "protein stability index", "setting": "parent: IOH6063_36, c terminus: a fixed tail appended", "result": 2.48}
    ]},
    {"protein": "FVKILKDFPEEDDPTNWLRCYYYE", "values": [
      {"measurement": "protein stability index", "setting": "parent: IOH5398_38, c terminus: a fixed tail appended", "result": 2.09}
    ]},
    {"protein": "FQRRNMIEPRERAKFKRKYKVKLV", "values": [
      {"measurement": "protein stability index", "setting": "parent: IOH6410_75, c terminus: a fixed tail appended", "result": 2.25}
    ]},
    {"protein": "KKFRTKSRTWAGEKSKREMYSRLK", "values": [
      {"measurement": "protein stability index", "setting": "parent: IOH5852_84, c terminus: a fixed tail appended", "result": 2.82}
    ]},
    {"protein": "YIIQQGGWGTVFSLESEEEEYPGI", "values": [
      {"measurement": "protein stability index", "setting": "parent: IOH5956_33, c terminus: a fixed tail appended", "result": 1.93}
    ]},
    {"protein": "LDYTADEDGVWYSVAPMNVRRGLA", "values": [
      {"measurement": "protein stability index", "setting": "parent: IOH6063_59, c terminus: a fixed tail appended", "result": 1.98}
    ]},
    {"protein": "KQGSMNFRFIPVLFPNAKKEHVPT", "values": [
      {"measurement": "protein stability index", "setting": "parent: IOH5394_84, c terminus: a fixed tail appended", "result": 1.99}
    ]},
    {"protein": "PRPPSNPPARGTLKTSNLPEELRK", "values": [
      {"measurement": "protein stability index", "setting": "parent: IOH5394_64, c terminus: a fixed tail appended", "result": 4.55}
    ]},
    {"protein": "PGQPLPGASVRGLHPVQKVILNYP", "values": [
      {"measurement": "protein stability index", "setting": "parent: IOH5394_50, c terminus: a fixed tail appended", "result": 3.05}
    ]},
    {"protein": "QLIDPDENKENEAFEFKKPVRPVS", "values": [
      {"measurement": "protein stability index", "setting": "parent: IOH5852_23, c terminus: a fixed tail appended", "result": 3.49}
    ]},
    {"protein": "QSLDQEILLKVKTEIEEELKSLDK", "values": [
      {"measurement": "protein stability index", "setting": "parent: IOH5956_9, c terminus: a fixed tail appended", "result": 4.89}
    ]},
    {"protein": "PEASHLRFRRFRFQEAAGPREALS", "values": [
      {"measurement": "protein stability index", "setting": "parent: IOH6312_7, c terminus: a fixed tail appended", "result": 2.65}
    ]}
  ]
}
